Substrate: [O-][Cl+]O
Assay: Clark-type oxygen electrode, O2 release
Format: biochemical, Cyanothece sp. PCC 7425
Conditions: 50 mM citrate phosphate pH 5.0, 30°C

B1: CCld (chlorite dismutase from Cyanothece sp. PCC7425) (Cyanothece sp. PCC 7425) (protein)
chain: NNRYSFIGGRTGQWQVVKIRNVLGPGLQLVEKVNILNGAVAEIPLDSAWRLQGFASNIRYAIRTELEALQAVQPMLNRAEAILAVLIPIKKSAQWWEMAQDERRDIFERESHHTAVGLEYLPGVARRLLHCRDLGEEFDFLTWFEFAPEHSSAFNELLLRMRASKEWEYVEREVEVWLKRL
notes: heme b
Km: 162 ± 10.0 µM
kcat: 1144 ± 23.8 s⁻¹

Reference: article PMC4973843, “Dimeric chlorite dismutase from the nitrogen‐fixing cyanobacterium C yanothece sp. PCC7425” (Molecular Microbiology, 2015)
